Experimental data taken from article PMC9352680, “A comprehensive thermodynamic model for RNA binding by the Saccharomyces cerevisiae Pumilio protein PUF4”.
Positions count from the first letter of the chain named. Names and notes keep the numbering of the source.

T1: PUF4 RNA-binding domain (Saccharomyces cerevisiae, UniProt P25339 537-888)
T1 sequence: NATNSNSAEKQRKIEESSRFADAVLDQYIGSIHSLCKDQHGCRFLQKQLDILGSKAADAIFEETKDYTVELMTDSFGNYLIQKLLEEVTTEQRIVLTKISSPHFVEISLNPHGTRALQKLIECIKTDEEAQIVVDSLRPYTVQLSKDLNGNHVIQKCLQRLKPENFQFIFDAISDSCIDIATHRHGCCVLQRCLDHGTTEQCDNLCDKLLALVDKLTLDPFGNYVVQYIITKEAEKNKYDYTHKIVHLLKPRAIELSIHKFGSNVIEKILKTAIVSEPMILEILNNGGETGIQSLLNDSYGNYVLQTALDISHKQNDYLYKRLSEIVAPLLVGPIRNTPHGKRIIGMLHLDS

B1: Id_ii_S2_P4E.4_K4.3_C4.2_[T-1G]_H4.3_A4.1_F4.1_T4.2_[G10C] (ssRNA)
RNA: UUUGAUUAAUAUGAUAUCGUUCUUUCUCGACACUAUUACUUUCUUUCUCGAUAUCAUAUUAAUCUUU
B2: Id_ii_S2_P4E.4_K4.3_C4.2_[T-1G]_H4.3_A4.1_F4.1_T4.2_[G10T]_[T11C] (ssRNA)
RNA: B1 RNA with C39U, U40C
B3: Id_ii_S2_P4E.4_K4.3_C4.2_[T-1G]_H4.3_A4.1_F4.1_T4.2_[G10T] (ssRNA)
RNA: B1 RNA with C39U
B4: Id_ii_S2_P4E.4_K4.3_C4.2_[T-1G]_H4.3_A4.1_F4.1_T4.2_[G10A]_[T11C] (ssRNA)
RNA: B1 RNA with C39A, U40C
B5: Id_ii_S2_P4E.4_K4.3_C4.2_[T-1G]_H4.3_A4.1_F4.1_T4.2_[G10A]_[T11A] (ssRNA)
RNA: B1 RNA with C39A, U40A
B6: Id_ii_S2_P4E.4_K4.3_C4.2_[T-1G]_H4.3_A4.1_F4.1_T4.2_[G10A] (ssRNA)
RNA: B1 RNA with C39A
B7: Id_ii_S2_P4E.4_K4.3_C4.2_[T-1C]_H4.3_A4.1_F4.1_T4.2_[G10C]_[T11C] (ssRNA)
RNA: B1 RNA with G29C, U40C
B8: Id_ii_S2_P4E.4_K4.3_C4.2_[T-1C]_H4.3_A4.1_F4.1_T4.2_[G10T]_[T11A] (ssRNA)
RNA: B1 RNA with G29C, C39U, U40A
B9: Id_ii_S2_P4E.4_K4.3_C4.2_[T-1C]_H4.3_A4.1_F4.1_T4.2_[G10T] (ssRNA)
RNA: B1 RNA with G29C, C39U
B10: Id_ii_S2_P4E.4_K4.3_C4.2_[T-1C]_H4.3_A4.1_F4.1_T4.2_[G10A]_[T11A] (ssRNA)
RNA: B1 RNA with G29C, C39A, U40A
B11: Id_ii_S2_P4E.4_K4.3_C4.2_[T-1C]_H4.3_A4.1_F4.1_T4.2_[G10A] (ssRNA)
RNA: B1 RNA with G29C, C39A
B12: Id_ii_S2_P4E.4_K4.3_C4.2_[T-1C]_H4.3_A4.1_F4.1_T4.2 (ssRNA)
RNA: B1 RNA with G29C, C39G
B13: Id_ii_S2_P4E.4_K4.3_C4.2_[T-1A]_H4.3_A4.1_F4.1_T4.2_[G10C]_[T11C] (ssRNA)
RNA: B1 RNA with G29A, U40C
B14: Id_ii_S2_P4E.4_K4.3_C4.2_[T-1A]_H4.3_A4.1_F4.1_T4.2_[G10C]_[T11A] (ssRNA)
RNA: B1 RNA with G29A, U40A
B15: Id_ii_S2_P4E.4_K4.3_C4.2_[T-1A]_H4.3_A4.1_F4.1_T4.2_[G10C] (ssRNA)
RNA: B1 RNA with G29A
B16: Id_ii_S2_P4E.4_K4.3_C4.2_[T-1A]_H4.3_A4.1_F4.1_T4.2_[G10T]_[T11A] (ssRNA)
RNA: B1 RNA with G29A, C39U, U40A
B17: Id_ii_S2_P4E.4_K4.3_C4.2_[T-1A]_H4.3_A4.1_F4.1_T4.2_[G10A]_[T11C] (ssRNA)
RNA: B1 RNA with G29A, C39A, U40C
B18: Id_ii_S2_P4E.4_K4.3_C4.2_[T-1A]_H4.3_A4.1_F4.1_T4.2_[G10A] (ssRNA)
RNA: B1 RNA with G29A, C39A
B19: Id_ii_S2_P4E.4_K4.3_C4.2_[T-1A]_H4.3_A4.1_F4.1_T4.2_[T11C] (ssRNA)
RNA: B1 RNA with G29A, C39G, U40C
B20: Id_ii_S2_P4E.4_K4.3_C4.2_[T-1A]_H4.3_A4.1_F4.1_T4.2 (ssRNA)
RNA: B1 RNA with G29A, C39G
B21: Id_ii_S2_P4E.4_K4.3_C4.2_H4.3_A4.1_F4.1_T4.2_[G10C]_[T11G] (ssRNA)
RNA: B1 RNA with G29U, U40G
B22: Id_ii_S2_P4E.4_K4.3_C4.2_H4.3_A4.1_F4.1_T4.2_[G10C]_[T11C] (ssRNA)
RNA: B1 RNA with G29U, U40C
B23: Id_ii_S2_P4E.4_K4.3_C4.2_H4.3_A4.1_F4.1_T4.2_[G10C]_[T11A] (ssRNA)
RNA: B1 RNA with G29U, U40A
B24: Id_ii_S2_P4E.4_K4.3_C4.2_H4.3_A4.1_F4.1_T4.2_[G10T]_[T11A] (ssRNA)
RNA: B1 RNA with G29U, C39U, U40A
B25: Id_ii_S2_P4E.4_K4.3_C4.2_H4.3_A4.1_F4.1_T4.2_[G10T] (ssRNA)
RNA: B1 RNA with G29U, C39U
B26: Id_ii_S2_P4E.4_K4.3_C4.2_H4.3_A4.1_F4.1_T4.2_[G10A] (ssRNA)
RNA: B1 RNA with G29U, C39A

Biological target: T1, PUF4 RNA-binding domain
Experiment: Mg; RNA-MaP; 20 mM Na-HEPES pH 7.4, 30 mM KOAc, 0.75 mM MgCl2, 0.1% Tween-20, 5% glycerol, 0.1 mg/mL BSA, 2 mM DTT; 25 C; 0.0125-409.6 nM protein
Details: tags: N-His6-TEV cleaved; C-SNAP kept, Cy3B-labelled; label: tethered on chip by stalled RNA polymerase

Binder | Kd
UCUCUUUGUACUACUAUCUCUU (ssRNA) [Ib_S1_P5E.1_K5.1_C5.1_H5.1_A5.1_[T5C]_F5.1_[T8C]_T5.1] | 10.9 nM
B1 | > 2300 nM
B2 | > 2300 nM
B3 | > 2300 nM
B4 | > 2300 nM
B5 | > 2300 nM
B6 | > 2300 nM
B7 | > 2300 nM
B8 | 594 nM
B9 | 2050 nM
B10 | > 2300 nM
UCUCUUUGUAAUACUAUCUCUU (ssRNA) [Ib_S1_P5E.1_K5.1_C5.1_H5.1_A5.1_[T5A]_F5.1_[T8C]_T5.1] | 10.3 nM
B11 | > 2300 nM
B12 | > 2300 nM
B13 | > 2300 nM
B14 | > 2300 nM
B15 | > 2300 nM
B16 | 748 nM
B17 | 2240 nM
B18 | > 2300 nM
B19 | > 2300 nM
B20 | > 2300 nM
UCUCUUUGUACUAAUAUCUCUU (ssRNA) [Ic_S1_P5E.1_K5.1_C5.1_H5.1_A5.1_[T5C]_F5.1_[T8A]_T5.1] | 12.5 nM
B21 | > 2300 nM
B22 | 563 nM
B23 | 471 nM
B24 | 459 nM
B25 | 528 nM
B26 | 498 nM
